Values quoted from earlier work as cited in article PMC12020373.

Legend:
[1] = target: Cys106 (UniProt position 106, LIAAICAGPTA)
[2] = target: Cys145 (UniProt position 145, PILIPCHRVVC)
[3] = target: His31 (UniProt position 31, TIGIGHLLTKS)
[4] = target: Cys78 (UniProt position 79, YIDKVCELKKK)
[5] = target: Cys46 (UniProt position 47, TERPGCLDFKG)
[6] = target: Cys65 (UniProt position 66, ELKGTCKEDAM)
[7] = target: Cys17 (UniProt position 18, VKHLKCKPADE)
[8] = target: Cys36 (UniProt position 37, YKQATCGDINT)
[9] = target: Cys46 (UniProt position 47, DFTFVCPTELG)
[10] = system: Cys210
[11] = target: Cys25 (UniProt position 157, GSCGSCWAFSA)
[12] = target: Cys29 (UniProt position 108, GSCGSCWAFGA)
[13] = system: Cys51
[14] = target: Cys283 (UniProt position 283, GYVLTCPSNLG)
[15] = target: Cys283 (UniProt position 283, GYVLTCPANLG)
[16] = target: His12 (UniProt position 13, WQLVLHVWAKV)
[17] = target: His48 (UniProt position 49, FDRFKHLKTEA)
[18] = target: His81 (UniProt position 82, LKKKGHHEAEL)
[19] = target: His36 (UniProt position 37, RLFKSHPETLE)
[20] = target: His116 (UniProt position 117, IIHVLHSRHPG)
[21] = target: His113 (UniProt position 114, SEAIIHVLHSR)
[22] = target: His36 (UniProt position 37, RLFTGHPETLE)
[23] = target: His113 (UniProt position 114, SDAIIHVLHSK)
[24] = target: His119 (UniProt position 120, VLHSKHPGDFG)
[25] = target: His116 (UniProt position 117, IIHVLHSKHPG)
[26] = target: Cys125 (UniProt position 126, PGDFGCDAQGA)
[27] = target: Cys126 (UniProt position 127, GDFGACAQGAM)
[28] = target: Cys124 (UniProt position 125, HPGDFCADAQG)
[29] = target: Cys25 (UniProt position 158, GSCGSCWAFSA)
[30] = target: Cys403 (UniProt position 403, RPVIHCRAGVG)
[31] = target: Cys215 (UniProt position 215, PVVVHCSAGIG)
[32] = target: His124 (UniProt position 124, EWVKGHAGHPE)
[33] = target: His83 (UniProt position 83, ITQWIHNWKKR)
[34] = target: His127 (UniProt position 127, KGHAGHPENER)
[35] = target: His62 (UniProt position 62, EALKEHCEVIL)
[36] = target: His8 (UniProt position 90, STKKLHKEPAT)
[37] = target: His46 (UniProt position 128, TPETKHPKKGV)
[38] = system: Cys35
[39] = system: Cys28
[40] = target: Cys32 (UniProt position 33, FWAEWCGPCKM)
[41] = target: Cys32 (UniProt position 32, FSATWCGPCKM)
[42] = target: His43 (UniProt position 43, IKPFFHSLSEK)
[43] = target: Cys40 (UniProt position 40, FSASWCPPCRG)
[44] = target: Cys88 (UniProt position 88, ADGSICLDILQ)
[45] = system: Cys85

For DJ-1 (PARK7) (Homo sapiens), the pKa [1] is listed as 5.4.
In the case of “O6-alkylguanine-DNA alkyltransferase (AGT/MGMT) (Homo sapiens)”, the pKa [2] is given as 5.3.
In the case of “T4 lysozyme (PDB 2LZM) (Enterobacteria phage T4 (inferred))”, the pKa [3] is listed as 9.1.
For “acyl-CoA-binding protein (PDB 1NTI) E78C (Bos taurus (inferred); E78C)”, the pKa [4] is given as 9.6.
In the case of “acyl-CoA-binding protein (PDB 1NTI) M46C (Bos taurus (inferred); M46C)”, the pKa [5] is listed as 8.2.
For “acyl-CoA-binding protein (PDB 1NTI) S65C (Bos taurus (inferred); S65C)”, the pKa [6] is given as 9.0.
For “acyl-CoA-binding protein (PDB 1NTI) T17C (Bos taurus (inferred); T17C)”, the pKa [7] is listed as 9.8.
In the case of “acyl-CoA-binding protein (PDB 1NTI) V36C (Bos taurus (inferred); V36C)”, the pKa [8] is listed as 9.5.
For “alkyl hydroperoxide reductase C (peroxiredoxin AhpC) (Salmonella enterica serovar Typhimurium (inferred; article says only 'bacterial'))”, the pKa [9] is given as 5.9.
For alpha1-antitrypsin (Homo sapiens), the pKa [10] is listed as 6.9.
For “caricain (papaya protease omega) (Carica papaya)”, the pKa [11] is listed as 2.9.
For cathepsin B (Rattus norvegicus), the pKa [12] is listed as 3.6.
In the case of “methionine sulfoxide reductase A (MsrA) (Mus musculus)”, the pKa [13] is listed as 7.2.
For “methionine sulfoxide reductase A E115Q (Mus musculus; E115Q)”, the pKa [13] is given as 8.2.
In the case of muscle creatine kinase (Homo sapiens), the pKa [14] is listed as 5.6.
For “muscle creatine kinase S285A (Homo sapiens; S285A)”, the pKa [15] is listed as 6.7.
For “myoglobin (PDB 1A6K) (Physeter macrocephalus (sperm whale; inferred))”, the pKa [16] is listed as 6.49, the pKa [17] is listed as 5.55 and the pKa [18] is listed as 6.88. The pKa [19] was 7.98, the pKa [20] was 6.70 and the pKa [21] was 5.51.
For “myoglobin (PDB 1DWR) (Equus caballus (horse; inferred))”, the pKa [18] is listed as 6.94, the pKa [22] is listed as 7.8 and the pKa [23] is listed as 5.87. The pKa [24] was 6.56 and the pKa [25] was 6.79.
For “myoglobin A125C (Physeter macrocephalus (sperm whale); A125C)”, the pKa [26] is given as 8.4.
In the case of “myoglobin D126C (Physeter macrocephalus (sperm whale); D126C)”, the pKa [27] is given as 8.1.
For “myoglobin G124C (Physeter macrocephalus (sperm whale); G124C)”, the pKa [28] is listed as 6.5.
In the case of papain (Carica papaya), the pKa [29] is given as 3.3.
For “protein tyrosine phosphatase YopH (Yersinia (species not stated; Y. enterocolitica for 1YPT to my knowledge))”, the pKa [30] is listed as 4.7.
In the case of “protein-tyrosine phosphatase 1B / PTP1 (Homo sapiens for the listed structure; the pKa source title says only 'mammalian' PTP1)”, the pKa [31] is given as 5.6.
In the case of ribonuclease HI (Escherichia coli), the pKa [32] is listed as 7.1, the pKa [33] is listed as 5.5 and the pKa [34] is listed as 7.9. The pKa [35] was 7.0.
For “staphylococcal nuclease (PDB 1EY0) (Staphylococcus aureus (inferred))”, the pKa [36] is listed as 6.52 and the pKa [37] is listed as 5.86.
For “thiol-disulfide oxidoreductase ResA (Bacillus subtilis (inferred))”, the pKa [38] is listed as 8.8.
For “thiol:disulfide interchange protein DsbA (Escherichia coli (inferred))”, the pKa [39] is given as 3.3.
For thioredoxin (Escherichia coli), the pKa [40] is listed as 7.3.
For thioredoxin (Homo sapiens), the pKa [41] is listed as 6.3 and the pKa [42] is listed as 5.5.
In the case of “tryparedoxin (Trypanosoma brucei (inferred from PDB 1O73))”, the pKa [43] is given as 7.2.
In the case of “ubiquitin-conjugating enzyme E2 (PDB 1JAS; HsUbc2b) (Homo sapiens (inferred))”, the pKa [44] is given as 10.2.
In the case of “ubiquitin-conjugating enzyme Ubc13 (PDB 1JBB) (Saccharomyces cerevisiae (inferred))”, the pKa [45] is listed as 11.1.
For “ubiquitin-conjugating enzyme UbcH10 (Homo sapiens)”, the pKa [45] is given as 10.9.
